The labels stand for the following.
T1: RSV F glycoprotein (NUF4) (respiratory syncytial virus)
T1 chain 1: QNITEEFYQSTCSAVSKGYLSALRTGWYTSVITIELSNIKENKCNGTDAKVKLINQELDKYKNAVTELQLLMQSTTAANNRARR
T1 chain 2: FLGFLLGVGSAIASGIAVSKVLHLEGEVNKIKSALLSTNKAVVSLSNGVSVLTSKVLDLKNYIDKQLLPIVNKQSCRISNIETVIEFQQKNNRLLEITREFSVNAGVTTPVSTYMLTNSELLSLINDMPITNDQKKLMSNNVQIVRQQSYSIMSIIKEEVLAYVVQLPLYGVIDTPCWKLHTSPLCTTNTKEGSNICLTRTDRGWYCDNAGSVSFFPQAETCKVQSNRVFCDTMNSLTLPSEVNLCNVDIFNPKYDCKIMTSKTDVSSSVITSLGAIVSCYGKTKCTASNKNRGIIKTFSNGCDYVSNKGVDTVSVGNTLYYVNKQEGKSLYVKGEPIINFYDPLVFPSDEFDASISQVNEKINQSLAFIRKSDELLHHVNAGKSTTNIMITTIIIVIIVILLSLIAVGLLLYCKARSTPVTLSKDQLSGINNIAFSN

T2: murine FcRn (mouse, UniProt P01887 21-119)
T2 construct: also called mouse FcRn; muFcRn
T2 sequence: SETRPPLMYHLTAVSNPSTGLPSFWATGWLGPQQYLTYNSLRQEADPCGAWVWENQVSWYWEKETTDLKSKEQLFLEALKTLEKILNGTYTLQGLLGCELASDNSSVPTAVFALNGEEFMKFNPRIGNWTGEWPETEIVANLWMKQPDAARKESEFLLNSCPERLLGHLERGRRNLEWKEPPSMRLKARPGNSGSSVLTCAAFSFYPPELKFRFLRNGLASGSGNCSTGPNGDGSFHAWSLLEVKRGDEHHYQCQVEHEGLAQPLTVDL
T2 sequence (b2m): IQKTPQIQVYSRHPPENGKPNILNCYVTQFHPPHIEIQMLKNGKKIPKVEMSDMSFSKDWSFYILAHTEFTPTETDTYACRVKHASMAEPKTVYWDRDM

B1: A1e9 IgG (antibody, V domains shown)
VH: QVTLRESGPALVKPTQTLTLTCTFSGFSLSTAGMSVGWIRQPPGKALEWLADIWWDGKKHYNPSLKDRLTISKDTSKNQVVLKVTNMDPADTATYYCARDMIFNWYFDVWGQGTTVTVSS
VL: DIQMTQSPSTLSASVGDRVTITCSLSSRVGYMHWYQQKPGKAPKLLIYDTFKLSSGVPSRFSGSGSGTEFTLTISSLQPDDFATYYCFQGSGYPFTFGGGTKVEIKR
notes: also called Ale9
B2: A8c7 IgG (antibody, V domains shown)
VH: B1 VH with G57D, H60S
VL: B1 VL with L25P, F51R, K52Y, L53Q
B3: P12f2 IgG (antibody, V domains shown)
VH: B1 VH with A32P, G57D, W105F
VL: B1 VL with K52Y
B4: P12f4 IgG (antibody, V domains shown)
VH: B1 VH with A32P, W105F
VL: B1 VL with F51R, K52G, S54P
B5: S52Y Fab (Fab, name in Kabat numbering, V domains shown)
VH: B1 VH with A32S, G57D, H60D, D67S, D100S, F103T
VL: DIQMTQSPSTLSASVGDRVTITCSASSSVGYMHWYQQKPGKAPKLLIYDTYKLASGVPSRFSGSGSGTEFTLTISSLQPDDFATYYCFQGSGYPFTFGGGTKVEIK
B6: 1X-493L1FR Fab (Fab, V domains shown)
VH: B1 VH with A32S, G57D, H60D, D67S, D100S, F103T
VL: B5 VL with Y51S
notes: also called IX-493L1FR
B7: S52F Fab (Fab, name in Kabat numbering, V domains shown)
VH: B1 VH with A32S, G57D, H60D, D67S, D100S, F103T
VL: B5 VL with Y51F
B8: palivizumab Fab (recombinant) (Fab, V domains shown)
VH: B1 VH with A32S, G57D, H60D, D67S, D100S, F103T, Q112A
VL: B5 VL with S24K, A25C, S26Q, S27L, Y51S, V103L
B9: G93Y Fab (Fab, name in Kabat numbering, V domains shown)
VH: B1 VH with A32S, G57D, H60D, D67S, D100S, F103T
VL: B5 VL with Y51S, G92Y
B10: human IgG1 MEDI-493 (palivizumab) H433K/N434F/Y436H (antibody)
heavy: QVTLRESGPALVKPTQTLTLTCTFSGFSLSTSGMSVGWIRQPPGKALEWLADIWWDDKKDYNPSLKSRLTISKDTSKNQVVLKVTNMDPADTATYYCARSMITNWYFDVWGAGTTVTVSSASTKGPSVFPLAPSSKSTSGGTAALGCLVKDYFPEPVTVSWNSGALTSGVHTFPAVLQSSGLYSLSSVVTVPSSSLGTQTYICNVNHKPSNTKVDKRVEPKSCDKTHTCPPCPAPELLGGPSVFLFPPKPKDTLMISRTPEVTCVVVDVSHEDPEVKFNWYVDGVEVHNAKTKPREEQYNSTYRVVSVLTVLHQDWLNGKEYKCKVSNKALPAPIEKTISKAKGQPREPQVYTLPPSREEMTKNQVSLTCLVKGFYPSDIAVEWESNGQPENNYKTTPPVLDSDGSFFLYSKLTVDKSRWQQGNVFSCSVMHEALKFHHTQKSLSLSPGK
light: DIQMTQSPSTLSASVGDRVTITCKCQLSVGYMHWYQQKPGKAPKLLIYDTSKLASGVPSRFSGSGSGTEFTLTISSLQPDDFATYYCFQGSGYPFTFGGGTKLEIKRTVAAPSVFIFPPSDEQLKSGTASVVCLLNNFYPREAKVQWKVDNALQSGNSQESVTEQDSKDSTYSLSSTLTLSKADYEKHKVYACEVTHQGLSSPVTKSFNRGEC
B11: human IgG1 MEDI-493 (palivizumab) M252W (antibody)
heavy: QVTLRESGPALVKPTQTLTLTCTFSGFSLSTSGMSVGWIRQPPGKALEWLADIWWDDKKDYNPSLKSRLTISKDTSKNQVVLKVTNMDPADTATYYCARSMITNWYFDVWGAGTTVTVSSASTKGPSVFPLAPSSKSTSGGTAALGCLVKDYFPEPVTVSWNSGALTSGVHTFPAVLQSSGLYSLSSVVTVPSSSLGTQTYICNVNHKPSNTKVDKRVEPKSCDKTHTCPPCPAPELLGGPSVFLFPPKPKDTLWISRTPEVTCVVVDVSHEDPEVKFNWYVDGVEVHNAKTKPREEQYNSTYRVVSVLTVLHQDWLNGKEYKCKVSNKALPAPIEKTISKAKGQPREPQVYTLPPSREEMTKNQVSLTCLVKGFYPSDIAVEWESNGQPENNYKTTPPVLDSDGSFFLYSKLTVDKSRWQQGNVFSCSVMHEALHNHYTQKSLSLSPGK
light: B10 light
B12: human IgG1 MEDI-493 (palivizumab) M252Y/T256Q (antibody)
heavy: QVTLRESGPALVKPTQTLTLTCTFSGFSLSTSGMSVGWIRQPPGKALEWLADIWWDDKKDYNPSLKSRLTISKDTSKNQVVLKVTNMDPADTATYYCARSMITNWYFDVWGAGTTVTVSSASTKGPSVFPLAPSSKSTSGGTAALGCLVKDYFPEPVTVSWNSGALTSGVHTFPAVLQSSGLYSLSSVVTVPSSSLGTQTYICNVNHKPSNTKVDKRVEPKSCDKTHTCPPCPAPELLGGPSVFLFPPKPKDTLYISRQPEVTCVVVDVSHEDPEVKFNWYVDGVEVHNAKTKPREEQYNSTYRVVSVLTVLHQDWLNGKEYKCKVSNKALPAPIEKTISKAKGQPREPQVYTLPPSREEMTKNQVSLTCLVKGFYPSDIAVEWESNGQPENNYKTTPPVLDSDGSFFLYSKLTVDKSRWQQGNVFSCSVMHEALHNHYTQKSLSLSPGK
light: B10 light
B13: human IgG1 MEDI-493 (palivizumab) N434F/Y436H (antibody)
heavy: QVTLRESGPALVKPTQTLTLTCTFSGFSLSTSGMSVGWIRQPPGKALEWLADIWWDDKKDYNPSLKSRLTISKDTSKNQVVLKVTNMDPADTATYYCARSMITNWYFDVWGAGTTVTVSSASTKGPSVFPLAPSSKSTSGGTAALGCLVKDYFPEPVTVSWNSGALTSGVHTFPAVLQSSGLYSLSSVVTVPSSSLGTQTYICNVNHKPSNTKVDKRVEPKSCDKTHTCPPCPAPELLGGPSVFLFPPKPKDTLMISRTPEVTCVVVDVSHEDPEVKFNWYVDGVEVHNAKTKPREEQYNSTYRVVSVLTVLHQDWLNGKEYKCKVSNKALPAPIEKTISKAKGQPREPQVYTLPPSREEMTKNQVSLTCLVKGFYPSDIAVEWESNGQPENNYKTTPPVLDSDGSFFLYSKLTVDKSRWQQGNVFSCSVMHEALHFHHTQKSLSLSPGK
light: B10 light

The text below walks through data of patent publication US20110158985A1 (published 2011).

Residue numbers refer to the chain shown, from its start. In names and notes the source's numbering stands. Several values for one entry are separate records, joined by “and”; a condition that tells them apart may be missing. Equal values may be shown once.

For orientation: Kd means the concentration at which binding is half-saturated. Usually koff stands for a measure of how fast the partners let go of each other. By kon is commonly meant the second-order rate constant of association.

The target of the first assay is T3, F protein of RSV (Long strain) (RSV (Long strain), UniProt P12568 26-574). The experiment in a line: cell-based or functional assay.
As for B1, the “Mean IC50 (Control)” value was 0.0645 µg/mL and the “Mean IC50 (Curve)” value amounted to 0.0625 µg/mL.

For the molecule B2, the “Mean IC50 (Control)” value came to 0.0383 µg/mL and the “Mean IC50 (Curve)” value stood at 0.0337 µg/mL.

Regarding B3, the “Mean IC50 (Control)” value came to 0.0223 µg/mL and the “Mean IC50 (Curve)” value amounted to 0.0231 µg/mL.

For the molecule B4, the “Mean IC50 (Control)” value is 0.0235 µg/mL and the “Mean IC50 (Curve)” value stood at 0.0242 µg/mL.

A further assay has as its target T3, F protein of RSV (Long strain). The experiment in a line: cell-based or functional assay. The source holds these as a separate data set.
As for B5, the “Microneutralization IC50, Fab” value was 5.99 µg/ml and 120 nM.

With B6, the “Microneutralization IC50, Fab” value was 26.3 µg/ml and 526 nM.

Take B7: the “Microneutralization IC50, Fab” value was 7.27 µg/ml and 1.45 µM.

On to B8, for which the “Microneutralization IC50, Fab” value is 27.5 µg/ml and 549 nM.

As to B9, the “Microneutralization IC50, Fab” value is 6.26 µg/ml and 125 nM.

For a further assay the target is unchanged. The experiment in a line: cell-based or functional assay. The source holds these as a separate data set.
As for B1, the “Microneutralization IC50, IgG” value is 0.0625 µg/ml and 0.42 nM.

For B2, the “Microneutralization IC50, IgG” value was 0.0337 µg/ml and 0.22 nM.

With B3, the “Microneutralization IC50, IgG” value is 0.0231 µg/ml and 0.15 nM.

As for B8, the “Microneutralization IC50, Fab” value is 27.5 µg/ml and 549 nM.

Turning to B4, the “Microneutralization IC50, IgG” value was 0.242 µg/ml and 0.16 nM.

The next assay deals with T1, RSV F glycoprotein (NUF4). Description: SPR (BIAcore), mAb vs NUF4 (1:1). A general note: Surface plasmon resonance follows binding to a sensor surface in real time, without labels.
Take B1: binding was put at a Kd of 0.69 nM, the “fold in parentheses (palivizumab = 1)” value was found to be 13 fold, the koff stood at 0.000584 s⁻¹ and the kon came out at 843000 M⁻¹ s⁻¹.

Regarding B2, the Kd was 0.65 nM, the “fold in parentheses (palivizumab = 1)” value amounted to 13 fold, the dissociation rate constant (koff) was determined as 0.000535 s⁻¹ and the kon came to 825000 M⁻¹ s⁻¹.

Regarding B3, the Kd came out at 0.33 nM, the “fold in parentheses (palivizumab = 1)” value was determined as 26 fold, the koff came to 0.000178 s⁻¹ and the kon was 541000 M⁻¹ s⁻¹.

On to B4, for which binding was put at a Kd of 0.24 nM, the “fold in parentheses (palivizumab = 1)” value came to 36 fold, the koff amounted to 0.000229 s⁻¹ and the kon came out at 943000 M⁻¹ s⁻¹.

The target in another assay is T1, RSV F glycoprotein (NUF4). The experiment in a line: SPR (BIAcore), mAb vs NUF4 (2:1).
For the molecule B1, the affinity, expressed as Kd, was 4.22 nM; the “fold in parentheses (palivizumab = 1)” value was 74 fold; the koff amounted to 0.00139 s⁻¹; the on-rate constant (kon) was determined as 329000 M⁻¹ s⁻¹.

B2: the Kd was found to be 2.65 nM, the “fold in parentheses (palivizumab = 1)” value came to 118 fold, the koff amounted to 0.00114 s⁻¹ and the kon worked out at 430000 M⁻¹ s⁻¹.

Consider B3, for which the Kd turned out to be 0.84 nM, the “fold in parentheses (palivizumab = 1)” value was determined as 371 fold, the koff was 0.000236 s⁻¹ and the kon came out at 282000 M⁻¹ s⁻¹.

B4: binding was characterised by a dissociation constant (Kd) of 2.33 nM, the “fold in parentheses (palivizumab = 1)” value was determined as 134 fold, the koff came to 0.000636 s⁻¹ and the kon is 273000 M⁻¹ s⁻¹.

The next assay deals with Bac-F (respiratory syncytial virus). The experiment in a line: SPR (BIAcore), mAb vs Bac-F (1:1).
As for B1, the Kd turned out to be 0.33 nM and the “fold in parentheses (palivizumab = 1)” value stood at 12 fold.

With B2, the Kd was found to be 0.21 nM and the “fold in parentheses (palivizumab = 1)” value is 19 fold.

With B3, the Kd was 0.31 nM and the “fold in parentheses (palivizumab = 1)” value was found to be 13 fold.

As for B4, the Kd turned out to be 0.11 nM and the “fold in parentheses (palivizumab = 1)” value was determined as 35 fold.

A further assay concerns the target RSV F protein (purified) (respiratory syncytial virus). Description: SPR (BIAcore), F protein immobilised.
On to B6, for which the koff stood at 0.00065 s⁻¹ and the kon was determined as 185000 M⁻¹ s⁻¹.

The next assay concerns the target T4, recombinant C-terminally truncated RSV (A2 strain) F protein (RSV (A2 strain), UniProt P03420 26-524).
T4 construct: extracellular domain; also called truncated F protein; extracellular domain of the F protein from RSV A2
Description: SPR (BIAcore), Fab over immobilised F.
With B5, the Kd was 0.74 nM, the koff turned out to be 0.000125 s⁻¹ and the kon was found to be 170000 M⁻¹ s⁻¹.

For B6, the Kd came to 3.52 nM, the koff is 0.000651 s⁻¹ and the kon worked out at 185000 M⁻¹ s⁻¹.

As for B7, the Kd was found to be 0.85 nM, the koff was determined as 0.000175 s⁻¹ and the kon was found to be 206000 M⁻¹ s⁻¹.

For B8, the Kd was 5.25 nM.

On to B9, for which the Kd is 0.94 nM, the koff turned out to be 0.000153 s⁻¹ and the kon was determined as 162000 M⁻¹ s⁻¹.

The target of another assay is T4, recombinant C-terminally truncated RSV …. The experiment in a line: SPR (BIAcore), Fab over immobilised F. The source holds these as a separate data set.
Consider B8, for which the Kd was 5.25 nM.

The target is the same in a further assay. The experiment in a line: SPR (BIAcore), IgG over immobilised F.
As for B1, the Kd is 0.33 nM, the koff was determined as 0.000143 s⁻¹ and the kon came to 433000 M⁻¹ s⁻¹.

As for B2, the Kd was found to be 0.21 nM, the koff is 8.75e-05 s⁻¹ and the kon was 417000 M⁻¹ s⁻¹.

For the molecule B3, the Kd worked out at 0.314 nM, the koff came to 0.000128 s⁻¹ and the kon came out at 407000 M⁻¹ s⁻¹.

With B4, the Kd came to 0.112 nM, the koff came out at 5.55e-05 s⁻¹ and the kon stood at 495000 M⁻¹ s⁻¹.

The target of the next assay is T2, murine FcRn. Description: SPR (BIAcore 3000), FcRn over immobilised IgG1, pH 6.0, Scatchard.
Description: IgG1 variants was monitored by surface plasmon resonance detection using a BIAcore 3000 instrument (Pharmacia Biosensor, Uppsala, Sweden). […] The protein concentrations ranged from 3-5 μg/ml in 10 mM sodium acetate, pH 5.0. The activation period was set for 7 minutes at a flow rate of 10 μl/min and the immobilization period was set to between 10 and 20 minutes at a flow rate of 10 μl/min. […] Human and murine FcRn were buffer exchanged against 50 mM PBS buffer pH 6.0 containing 0.05% Tween 20. Dilutions were made in the same buffer. All binding experiments were performed at 25° C. with concentrations ranging from 120 to 1 μg/ml at a flow rate of 5 to 10 μl/min; data were collected for 25 to 50 minutes and three 1-minute pulses of PBS buffer pH 7.2 were used to regenerate the surfaces. FcRn was also flowed over an uncoated cell and the sensorgrams from these blank runs subtracted from those obtained with IgG1-coupled chips. Runs were analyzed using the software BIAevaluation 3.1 (Pharmacia). Association constants (KAs) were determined from Scatchard analysis by measuring the concentration of free reactants and complex at equilibrium after correction for nonspecific binding.
As for B10, the Kd was 14 nM and the ΔΔG came out at 1.8 kcal/mol.

In turn, B11 registered a Kd of 30 nM and a ΔΔG of 1.3 kcal/mol.

In the case of B12, the affinity, expressed as Kd, was 39 nM and the ΔΔG was determined as 1.1 kcal/mol.

B13 showed a dissociation constant (Kd) of 9 nM and a ΔΔG of 2 kcal/mol.
